# Data published in the supplement of paper PMC11246515.
# ± gives the standard deviation of the averaged measurements.
# Experiment: total protein half-life in vivo (active degradation + dilution); higher = more stable protein
# [1] = E. coli NCM3722 delta-clpP delta-lon delta-hslV, growth: N-lim chemostat, doubling time 6 h
# [2] = E. coli NCM3722 delta-clpP, growth: N-lim chemostat, doubling time 6 h
# [3] = E. coli NCM3722 delta-hslV, growth: N-lim chemostat, doubling time 6 h
# [4] = E. coli NCM3722 delta-lon, growth: N-lim chemostat, doubling time 6 h
# [5] = E. coli NCM3722 delta-smpB, growth: N-lim chemostat, doubling time 6 h
# [6] = wild type E. coli NCM3722, growth: C-lim chemostat, doubling time 3 h
# [7] = wild type E. coli NCM3722, growth: C-lim chemostat, doubling time 6 h
# [8] = wild type E. coli NCM3722, growth: C-lim chemostat, doubling time 12 h
# [9] = wild type E. coli NCM3722, growth: N-lim chemostat, doubling time 6 h
# [10] = wild type E. coli NCM3722, growth: N-lim chemostat, doubling time 12 h
# [11] = wild type E. coli NCM3722, growth: P-lim chemostat, doubling time 6 h
# [12] = wild type E. coli NCM3722, growth: P-lim chemostat, doubling time 12 h
Sequence,total protein half-life in vivo [1] [h],total protein half-life in vivo [2] [h],total protein half-life in vivo [3] [h],total protein half-life in vivo [4] [h],total protein half-life in vivo [5] [h],total protein half-life in vivo [6] [h],total protein half-life in vivo [7] [h],total protein half-life in vivo [8] [h],total protein half-life in vivo [9] [h],total protein half-life in vivo [10] [h],total protein half-life in vivo [11] [h],total protein half-life in vivo [12] [h]
MLNQELELSLNMAFARAREHRHEFMTVEHLLLALLSNPSAREALEACSVDLVALRQELEAFIEQTTPVLPASEEERDTQPTLSFQRVLQRAVFHVQSSGRNEVTGANVLVAIFSEQESQAAYLLRKHEVSRLDVVNFISHGTRKDEPTQSSDPGSQPNSEEQAGGEERMENFTTNLNQLARVGGIDPLIGREKELERAIQVLCRRRKNNPLLVGESGVGKTAIAEGLAWRIVQGDVPEVMADCTIYSLDIGSLLAGTKYRGDFEKRFKALLKQLEQDTNSILFIDEIHTIIGAGAASGGQVDAANLIKPLLSSGKIRVIGSTTYQEFSNIFEKDRALARRFQKIDITEPSIEETVQIINGLKPKYEAHHDVRYTAKAVRAAVELAVKYINDRHLPDKAIDVIDEAGARARLMPVSKRKKTVNVADIESVVARIARIPEKSVSQSDRDTLKNLGDRLKMLVFGQDKAIEALTEAIKMARAGLGHEHKPVGSFLFAGPTGVGKTEVTVQLSKALGIELLRFDMSEYMERHTVSRLIGAPPGYVGFDQGGLLTDAVIKHPHAVLLLDEIEKAHPDVFNILLQVMDNGTLTDNNGRKADFRNVVLVMTTNAGVRETERKSIGLIHQDNSTDAMEEIKKIFTPEFRNRLDNIIWFDHLSTDVIHQVVDKFIVELQVQLDQKGVSLEVSQEARNWLAEKGYDRAMGARPMARVIQDNLKKPLANELLFGSLVDGGQVTVALDKEKNELTYGFQSAQKHKAEAAH [P0ABH9],6.61 ± 0.43,6.29 ± 0.55,0.877 ± 0.22,0.987 ± 0.069,0.823 ± 0.015,0.7994 ± 0.0018,0.97 ± 0.039,1.14 ± 0.28,1.03 ± 0.18,1.046 ± 0.0038,0.795 ± 0.2,1.56 ± 0.78
MSDLLCSAKLGAMTLALLLSATSLSALASVTPDRTRLIFNESDKSISVTLRNNDPKLPYLAQSWIEDEKGNKITSPLTVLPPVQRIDSMMNGQVKVQGMPDINKLPADRESMFYFNVREIPPKSNKPNTLQIALQTRIKLFWRPKALEKVSMKSPWQHKVTLTRSGQAFTVNNPTPYYVIISNASAQKNGNPAAGFSPLVIEPKTTVPLNVKMDSVPVLTYVNDFGARMPLFFQCNGNSCQVDEEQSRKG,,,,,,,,,,,4.16,
MAMYQNMLVVIDPNQDDQPALRRAVYLHQRIGGKIKAFLPIYDFSYEMTTLLSPDERTAMRQGVISQRTAWIHEQAKYYLNAGVPIEIKVVWHNRPFEAIIQEVISGGHDLVLKMAHQHDRLEAVIFTPTDWHLLRKCPSPVWMVKDQPWPEGGKALVAVNLASEEPYHNALNEKLVKETIELAEQVNHTEVHLVGAYPVTPINIAIELPEFDPSVYNDAIRGQHLLAMKALRQKFGINENMTHVEKGLPEEVIPDLAEHLQAGIVVLGTVGRTGISAAFLGNTAEQVIDHLRCDLLVIKPDQYQTPVELDDEEDD [P0AAC0],4.78 ± 0.088,4.77 ± 0.46,4.73 ± 0.4,5.473 ± 0.017,4.47 ± 0.11,2.97 ± 0.39,5.6 ± 0.071,9.86 ± 0.44,5.01 ± 0.17,8.64 ± 0.4,5.56 ± 0.67,12.2 ± 0.15
MNKFEDIRGVAFDLDGTLVDSAPGLAAAVDMALYALELPVAGEERVITWIGNGADVLMERALTWARQERATQRKTMGKPPVDDDIPAEEQVRILRKLFDRYYGEVAEEGTFLFPHVADTLGALQAKGLPLGLVTNKPTPFVAPLLEALDIAKYFSVVIGGDDVQNKKPHPDPLLLVAERMGIAPQQMLFVGDSRNDIQAAKAAGCPSVGLTYGYNYGEAIDLSQPDVIYQSINDLLPALGLPHSENQESKND,3.53 ± 0.37,3.12 ± 0.096,2.83,4.24 ± 1.1,3.05 ± 0.14,3.21 ± 0.34,5.56 ± 0.92,8.69 ± 0.53,2.87 ± 0.17,4.01 ± 0.23,4.14 ± 1,10.5 ± 1.2
MRNRTLADLDRVVALGGGHGLGRVLSSLSSLGSRLTGIVTTTDNGGSTGRIRRSEGGIAWGDMRNCLNQLITEPSVASAMFEYRFGGNGELSGHNLGNLMLKALDHLSVRPLEAINLIRNLLKVDTHLIPMSEHPVDLMAIDDQGHEVYGEVNIDQLTTPIQELLLTPNVPATREAVHAINEADLIIIGPGSFYTSLMPILLLKEIAQALRRTPAPMVYIGNLGRELSLPAANLKLESKLAIMEQYVGKKVIDAVIVGPKVDVSAVKERIVIQEVLEASDIPYRHDRQLLHNALEKALQALG,4.62 ± 0.5,4.2 ± 0.13,4.3 ± 0.14,5.33 ± 0.18,4.5 ± 0.17,3.16 ± 0.085,5.45 ± 0.32,10.3 ± 1.7,4.6 ± 0.073,7.33 ± 0.076,6.31 ± 0.59,12.1 ± 0.98
MMNFNNVFRWHLPFLFLVLLTFRAAAADTLLILGDSLSAGYRMSASAAWPALLNDKWQSKTSVVNASISGDTSQQGLARLPALLKQHQPRWVLVELGGNDGLRGFQPQQTEQTLRQILQDVKAANAEPLLMQIRLPANYGRRYNEAFSAIYPKLAKEFDVPLLPFFMEEVYLKPQWMQDDGIHPNRDAQPFIADWMAKQLQPLVNHDS [P0ADA1],4.1 ± 0.072,4.87 ± 0.67,6.432 ± 0.063,6.67 ± 0.4,4.99 ± 0.46,3.25 ± 0.11,6.228 ± 0.058,11.1 ± 5.7,5.25 ± 0.28,11 ± 3.7,5.23 ± 0.37,11.4 ± 0.78
MSKSRLTVFSFVRRFLLRLMVVLAVFWGGGIALFSVAPVPFSAVMVERQVSAWLHGNFRYVAHSDWVSMDQISPWMGLAVIAAEDQKFPEHWGFDVASIEKALAHNERNENRIRGASTISQQTAKNLFLWDGRSWVRKGLEAGLTLGIETVWSKKRILTVYLNIAEFGDGVFGVEAAAQRYFHKPASKLTRSEAALLAAVLPNPLRFKVSSPSGYVRSRQAWILRQMYQLGGEPFMQQHQLD,7.03,6.44 ± 0.48,6.04 ± 0.026,,5.87 ± 0.34,3.16,,10.8 ± 1.2,6.11 ± 0.23,12.3 ± 1.5,6.23 ± 0.25,12.8 ± 0.19
